Reference: publication PMC9719539, “Single-molecule characterization of subtype-specific β1 integrin mechanics” (Nature Communications, 2022)

Tested on: BJ-5ta cells
Test: Percentage of spread cells / cell spreading on TGT surfaces
Format: cell-based, human
Settings: 1 h after seeding
Method: Glass coverslips were densely PEGylated to minimize non-specific interactions such as the binding of cell-secreted extracellular matrix proteins. Coverslips cleaned by piranha etching solution (a 3:1 mixture of sulfuric acid and hydrogen peroxide) were incubated in silanization solution (UCT, 1760-24-3; 2% aminosilane and 5% acetic acid in methanol) for 30 min and reacted with a mixture of Polyethylene glycol (PEG) with and without biotin (1:19, 150 mg/ml; Laysan Bio, Biotin-PEG-SVA-5000 and MPEG-SVA-5000) for 4 h. Surfaces were washed thoroughly and dried using nitrogen gas after each step. A 3D-printed dish (PLA) or a silicon gasket (Grace Bio Labs, 103280) was attached to the coverslip to form a dish. Neutravidin (Thermo Fisher scientific, 31000; 0.4 mg/ml) was added to the dish for 10 min and washed out thoroughly. […]
The cells were gently harvested by washing in PBS for 1 min, incubating with 0.05% trypsin for 3 min, and then neutralizing with cell culture medium (FBS 10%). […] A Nikon Eclipse Ti microscope equipped with Xenon arc lamp, Nikon perfect focus system, custom total internal reflection fluorescence microscopy (TIRFM) module, and custom reflection interference contrast microscopy (RICM) module was driven by Elements software. […] Images were recorded using an electron-multiplying charge-coupled device (EMCCD; Andor iXon 888). […]

B1: vitronectin: physiologic macromolecular ligand with RGD motif (protein, UniProt P04004 20-478, looked up)
Vitronectin: DQESCKGRCTEGFNVDKKCQCDELCSYYQSCCTDYTAECKPQVTRGDVFTMPEDEYTVYDDGEEKNNATVHEQVGGPSLTSDLQAQSKGNPEQTPVLKPEEEAPAPEVGASKPEGIDSRPETLHPGRPQPPAEEELCSGKPFDAFTDLKNGSLFAFRGQYCYELDEKAVRPGYPKLIRDVWGIEGPIDAAFTRINCQGKTYLFKGSQYWRFEDGVLDPDYPRNISDGFDGIPDNVDAALALPAHSYSGRERVYFFKGKQYWEYQFQHQPSQEECEGSSLSAVFEHFAMMQRDSWEDIFELLFWGRTSAGTRQPQFISRDWHGVPGQVDAAMAGRIYISGMAPRPSLAKKQRFRHRNRKGYRSQRGHSRGRNQNSRRPSRATWLSLFSSEESNLGANNYDDYRMDWLVPATCEPIQSVFFFSGDKYYRVNLRTRRVDTVDPPYPRSIAQYWLGCPAPGHL
  cell morphology (in words): elongated with irregular lamellipodia
